# Biological target: antiserum B1
# Experiment: competition ELISA: peptide added to B1 on plate-bound hTNFα
OD450 with peptide,inhibition rate (%),Binder
1.11,9,DRLSAEINRPDYLDF [hTNFα peptide T(130-144)]
0.106,91,RRANALLANGVELRD [hTNFα peptide T(31-45)]
1.2,0,PIYLGGVFQLEKGDR [hTNFα peptide H(117-131)]
1.06,14,PCQRETPEGAEAKPW [hTNFα peptide T(100-114)]
1.01,23,NGVELRDNQLVVPSE [hTNFα peptide T(39-53)]
1.06,9,VVANPQAEGQLQWLN [hTNFα peptide T(16-30)]
1.1,13,VRSSSRTPSDKPVAH [hTNFα peptide T(1-15)]
1.17,3,VNLLSAIKSPCQRET [hTNFα peptide T(91-105)]
1.06,4,SDKPVAHVVANPQAE [hTNFα peptide T(9-23)]
0.103,92,GQLQWLNRRANALLA [hTNFα peptide T(24-38)]
1.12,13,LTHTISRIAVSYQTK [hTNFα peptide T(76-90)]
1.16,10,NQLVVPSEGLYLIYS [hTNFα peptide T(46-60)]

# Biological target: antiserum C2
# Experiment: competition ELISA: peptide added to C2 on plate-bound hTNFα
Binder,OD450 with peptide,inhibition rate (%)
AHVVANPQAEGQLQW [hTNFα peptide H(14-28)],1.65,7
QVLFKGQGCPSTHVL [hTNFα peptide H(61-75)],1.73,10
DKPVAHVVANPQAEG [hTNFα peptide H(10-24)],1.74,8
LQWLNRRANALLANG [hTNFα peptide H(26-40)],0.313,82
ISRIAVSYQTKVNLL [hTNFα peptide H(80-94)],1.7,12
LSAIKSPCQRETPEG [hTNFα peptide H(94-108)],1.79,6
SEGLYLIYSQVLFKG [hTNFα peptide H(52-66)],1.35,21
QTKVNLLSAIKSPCQ [hTNFα peptide H(88-102)],1.78,5
ANGVELRDNQLVVPS [hTNFα peptide H(38-52)],1.42,19
HVLLTHTISRIAVSY [hTNFα peptide H(73-87)],1.79,-1

# Further lines, results first:
OD450 with peptide,inhibition rate (%),Binder
1.77,10,LGGVFQLEKGDRLSA [hTNFα peptide H(120-134)]
1.78,12,GDRLSAEINRPDYLD [hTNFα peptide H(129-143)]

# Reference: patent EP4624487A1
